Results: doi:10.1101/2025.10.15.682582, “A recombinant norrin-derived growth factor retains the complete multifunctionality of human norrin” (bioRxiv, 2025)

Molecular target: T1, rhFrizzled-4/FC Chimera (human, UniProt Q9ULV1 37-212)
T1 sequence (looked up): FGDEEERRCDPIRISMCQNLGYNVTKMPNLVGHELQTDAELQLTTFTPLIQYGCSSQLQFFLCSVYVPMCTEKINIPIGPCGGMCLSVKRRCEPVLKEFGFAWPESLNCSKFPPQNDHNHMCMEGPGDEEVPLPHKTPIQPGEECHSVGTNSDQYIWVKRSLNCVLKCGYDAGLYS
Assay: cell-based or functional assay

- TCF/LEF firefly luciferase reporter in HEK-293 cells transfected with FZD4 and LRP5; average EC50 of 3 assays with human norrin: 0.036 µg/mL
B1: human recombinant norrin (ligand, UniProt Q00604 25-133, looked up)
chain: KTDSSFIMDSDPRRCMRHHYVDSISHPLYKCSSKMVLLARCEGHCSQASRSEPLVSFSTVLKQPFRSSCHCCRPQTSKLKALRLRCSGGMRLTATYRYILSCHCEECNS
